These results are taken from patent US20190071480A1 (Biogen, published 2019).

Where a chain is given by its changes, count along the chain named.

For test [1], the target named is T1, extracellular domain of activin receptor type IIB (ActRIIBecd), biotinylated (Homo sapiens (Human), UniProt Q13705 27-117, amino-biotinylated with amine-PEG3-Biotin).
T1 construct: immobilised on a streptavidin-coated sensor chip; also called biotinylated ActRIIBecd; extracellular domain of ActRIIB
T1 sequence: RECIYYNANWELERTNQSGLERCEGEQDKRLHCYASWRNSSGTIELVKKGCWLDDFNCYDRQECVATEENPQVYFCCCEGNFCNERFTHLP
Nature of the test: BIAcore SPR, biotinylated ActRIIBecd on chip; SD ±16.71 nM. How it is done: (§1) Biosensor experiments. In one embodiment, experiments were performed on a BIAcore™ T100/T200 instrument (Pharmacia Biosensor AB) in the multichannel mode (serial flow path involving flow cells 1+2+3+4). Flow rate was 10 μl/min; temperature was 25° C.; and data were recorded at 2.5 points/s. All four segments of a sensor chip CMS were coated with streptavidin (Sigma) to a density of 2000 pg/mm² (2000 resonance units) by the aminocoupling procedure. ActRIIBecd (10 mg) and amine-PEG3-Biotin (10 mg, Pierce, Rockford, Ill.) were dissolved in 200 μl H₂O and 10 mg NaCNBH₃ was added to prepare biotinylated ActRIIBecd. The reaction mixture was heated at 70° C. for 24 h, after that a further 10 mg NaCNBH₃ was added and the reaction was heated at 70° C. for another 24 h. After cooling to room temperature, the mixture was desalted with the spin column (3,000 molecular weight cut off (MWCO)). […] Sensograms were recorded during flow of the analyte (the ActRIIBecd-associated polypeptides (i.e., domains) as previously described) first through flow cell 1 (control) then through flow cell 2 (biotinylated ActRIIBecd). […] The sensograms obtained at 1.11, 3.33, 10, 30, and 90 nM analyte were evaluated for equilibrium binding, association rate, and dissociation rate by using the programs supplied with the instrument (BIA evaluation 2.1; Software Handbook. 1995; Pharmacia Biosensor AB).
(In SPR one partner is held on a chip, and binding of the other changes the refractive index at the surface.)

Test [2] concerns the target T1, extracellular domain of activin …. Nature of the test: BIAcore SPR, biotinylated ActRIIBecd on chip; SD ±15.39 nM. How it is done: as §1
Test [3] shares this target. Put plainly: BIAcore SPR, biotinylated ActRIIBecd on chip; SD ±12.10 nM. As for the experimental part:
as §1

The target is the same in test [4]. Put plainly: BIAcore SPR, biotinylated ActRIIBecd on chip; SD ±13.24 nM. As for the experimental part: as §1
Test [5] shares this target. Put plainly: BIAcore SPR, biotinylated ActRIIBecd on chip; SD ±13.21 nM. As for the experimental part:
as §1

For test [6] the target is unchanged. Put plainly: Mean KD column of Table 5; method not restated (BIAcore as Example 5); species also listed in Table 4. In short, it runs like this:
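Biotinylated ActRIIBecd was captured on a streptavidin-coated sensor chip at 50-250 RU, and the polypeptides, diluted in glycine buffer pH 4.5, were injected at 1.11, 3.33, 10, 30 and 90 nM. Runs were at 25° C and 10 μl/min, with reference-cell sensograms subtracted before fitting equilibrium binding, association and dissociation rates.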

Test [7] has the same target. Put plainly: BIAcore SPR as Example 5 (method not restated); SD ±2.12 nM. As for the experimental part:
as §1

Test [8] has the same target. Nature of the test: BIAcore SPR, biotinylated ActRIIBecd on chip; SD ±10.27 nM. As for the experimental part: as §1
Test [9] has the same target. Nature of the test: BIAcore SPR, biotinylated ActRIIBecd on chip; SD ±13.03 nM. How it is done:
as §1

Test [10] shares this target. Put plainly: BIAcore SPR, biotinylated ActRIIBecd on chip; SD ±13.97 nM. As for the experimental part: as §1
For test [11] the target is unchanged. Put plainly: BIAcore SPR, biotinylated ActRIIBecd on chip; SD ±14.78 nM. As for the experimental part: as §1
For test [12] the target is unchanged. Put plainly: BIAcore SPR, biotinylated ActRIIBecd on chip; SD ±12.01 nM. As for the experimental part: as §1
The target is the same in test [13]. Nature of the test: BIAcore SPR, biotinylated ActRIIBecd on chip; SD ±14.25 nM. As for the experimental part: as §1
Test [14] shares this target. Put plainly: BIAcore SPR, biotinylated ActRIIBecd on chip; SD ±11.20 nM. As for the experimental part: as §1
Test [15] has the same target. Put plainly: BIAcore SPR, biotinylated ActRIIBecd on chip; SD ±11.61 nM. As for the experimental part: as §1
The target is the same in test [16]. Put plainly: BIAcore SPR, biotinylated ActRIIBecd on chip; SD ±12.04 nM. As for the experimental part:
as §1

For test [17] the target is unchanged. Put plainly: BIAcore SPR, biotinylated ActRIIBecd on chip; SD ±13.42 nM. How it is done:
as §1

The target is the same in test [18]. Put plainly: BIAcore SPR, biotinylated ActRIIBecd on chip; SD ±12.07 nM. How it is done: as §1

On to AQAKHKGYKRLKSSCKRHPLY [Clone No. 9 domain (ActRIIBecd-associated polypeptide)], for which the Kd in [1] came to 52.4 nM.

Regarding GQAKRKGYKRLKSSCKRHPLY [Clone No. 8 domain (ActRIIBecd-associated polypeptide)], in test [2], binding was put at a Kd of 45.1 nM.

B1: Recombinant polypeptide of clones 8 + 21 + 15 (designed binder)
chain: GQAKRKGYKRLKSSCKRHPLYNSKIPKACCVPTELSAISMLYLDENEKVVLKNYQDMVVEGCGCRVDFSDVGWNDWIVAPPGYHAFYCHGECPFPLADHLNSTNHAIVQTLVNSV
The molecule B1 had a Kd in test [3] of 17.1 nM.

B2: Recombinant polypeptide of clones 8 + 14 + 19 (designed binder)
chain: GQAKRKGYKRLKSSCKRHPLYVDFKDVGWNDHAVAPPGYHAFYCHGECPFPLADHLNSDNHAIVQTKVNSVNSKDPKACCVPTELSAPSPLYLDENEKPVLKNYQDMVVHGCGCR
As for B2, the Kd in test [4] was determined as 15.6 nM.

B3: Recombinant polypeptide of clones 15 + 10 + 21 (designed binder)
chain: VDFSDVGWNDWIVAPPGYHAFYCHGECPFPLADHLNSTNHAIVQTLVNSVAQAKHKQRKRLKSSCKRHPLYNSKIPKACCVPTELSAISMLYLDENEKVVLKNYQDMVVEGCGCR
Molecule B3 had a Kd in [5] of 15.1 nM.

B4: SEQ ID NO: 188, cysteine pairs C15-C44^a (designed binder)
chain: AQAKHKQRKRLKSSCKRHPLYVDFSDVGWNDWIVAPPGYHAFYCHGECPFPLADHLNSTNHAIVQTLVNSV
modifications: disulfides C15-C44 (intra)
B4: the Kd in test [6] and in [7] was 42.3 nM throughout.

B5: Recombinant polypeptide of clones 19 + 14 + 8 (designed binder)
chain: NSKDPKACCVPTELSAPSPLYLDENEKPVLKNYQDMVVHGCGCRVDFKDVGWNDHAVAPPGYHAFYCHGECPFPLADHLNSDNHAIVQTKVNSVGQAKRKGYKRLKSSCKRHPLY
In test [8], B5 gave a Kd of 14.1 nM.

B6: Recombinant polypeptide of clones 19 + 14 (designed binder)
chain: NSKDPKACCVPTELSAPSPLYLDENEKPVLKNYQDMVVHGCGCRVDFKDVGWNDHAVAPPGYHAFYCHGECPFPLADHLNSDNHAIVQTKVNSV
In the case of B6, binding in [9] was put at a Kd of 32.1 nM.

B7: Recombinant polypeptide of clones 10 + 19 + 14 (designed binder)
chain: AQAKHKQRKRLKSSCKRHPLYNSKDPKACCVPTELSAPSPLYLDENEKPVLKNYQDMVVHGCGCRVDFKDVGWNDHAVAPPGYHAFYCHGECPFPLADHLNSDNHAIVQTKVNSV
Turning to B7, in [10], the affinity, expressed as Kd, was 17 nM.

B8: Recombinant polypeptide of clones 14 + 8 + 19 (designed binder)
chain: VDFKDVGWNDHAVAPPGYHAFYCHGECPFPLADHLNSDNHAIVQTKVNSVGQAKRKGYKRLKSSCKRHPLYNSKDPKACCVPTELSAPSPLYLDENEKPVLKNYQDMVVHGCGCR
Take B8: in test [11], the affinity, expressed as Kd, was 17.6 nM.

B9: Recombinant polypeptide of clones 19 + 8 + 14 (designed binder)
chain: NSKDPKACCVPTELSAPSPLYLDENEKPVLKNYQDMVVHGCGCRGQAKRKGYKRLKSSCKRHPLYVDFKDVGWNDHAVAPPGYHAFYCHGECPFPLADHLNSDNHAIVQTKVNSV
With B9, the Kd in test [12] was found to be 16 nM.

B10: Recombinant polypeptide of clones 21 + 10 + 15 (designed binder)
chain: NSKIPKACCVPTELSAISMLYLDENEKVVLKNYQDMVVEGCGCRAQAKHKQRKRLKSSCKRHPLYVDFSDVGWNDWIVAPPGYHAFYCHGECPFPLADHLNSTNHAIVQTLVNSV
Molecule B10 came in with a Kd in test [13] of 16.7 nM.

B11: Recombinant polypeptide of clones 10 + 15 + 21 (designed binder)
chain: AQAKHKQRKRLKSSCKRHPLYVDFSDVGWNDWIVAPPGYHAFYCHGECPFPLADHLNSTNHAIVQTLVNSVNSKIPKACCVPTELSAISMLYLDENEKVVLKNYQDMVVEGCGCR
B11 gave a Kd in test [14] of 17.2 nM.

B12: Recombinant polypeptide of clones 10 + 14 + 21 (designed binder)
chain: B11 chain with S25K, W32H, I33A, T59D, L67K
In [15], B12 displayed a Kd of 18 nM.

B13: Recombinant polypeptide of clones 8 + 15 + 19 (designed binder)
chain: B2 chain with K25S, H32W, A33I, D59T, K67L
For B13, the Kd in [16] was determined as 16.5 nM.

B14: Recombinant polypeptide of clones 8 + 19 (designed binder)
chain: GQAKRKGYKRLKSSCKRHPLYNSKDPKACCVPTELSAPSPLYLDENEKPVLKNYQDMVVHGCGCR
In [17], B14 displayed a Kd of 31.1 nM.

B15: Recombinant polypeptide of clones 14 + 19 (designed binder)
chain: VDFKDVGWNDHAVAPPGYHAFYCHGECPFPLADHLNSDNHAIVQTKVNSVNSKDPKACCVPTELSAPSPLYLDENEKPVLKNYQDMVVHGCGCR
As to B15, in [18], the Kd stood at 31 nM.

The term Kd denotes the equilibrium constant for the complex coming apart. High values mean lower affinity, low ones higher affinity.
